Test results as given in patent US9994881B2, “Functionalized carboxylic acids and alcohols by reverse fatty acid oxidation in engineered microbes” (William Marsh Rice University, priority 2011, dated 2018).
Marks after values point to notes of the source that are not given here.

B1: FadE: E. coli acyl-CoA dehydrogenase, a medium-long-chain fatty acyl-CoA dehydrogenase (protein, UniProt Q47146 1-814, looked up)
Acyl-coenzyme A dehydrogenase: MMILSILATVVLLGALFYHRVSLFISSLILLAWTAALGVAGLWSAWVLVPLAIILVPFNFAPMRKSMISAPVFRGFRKVMPPMSRTEKEAIDAGTTWWEGDLFQGKPDWKKLHNYPQPRLTAEEQAFLDGPVEEACRMANDFQITHELADLPPELWAYLKEHRFFAMIIKKEYGGLEFSAYAQSRVLQKLSGVSGILAITVGVPNSLGPGELLQHYGTDEQKDHYLPRLARGQEIPCFALTSPEAGSDAGAIPDTGIVCMGEWQGQQVLGMRLTWNKRYITLAPIATVLGLAFKLSDPEKLLGGAEDLGITCALIPTTTPGVEIGRRHFPLNVPFQNGPTRGKDVFVPIDYIIGGPKMAGQGWRMLVECLSVGRGITLPSNSTGGVKSVALATGAYAHIRRQFKISIGKMEGIEEPLARIAGNAYVMDAAASLITYGIMLGEKPAVLSAIVKYHCTHRGQQSIIDAMDITGGKGIMLGQSNFLARAYQGAPIAITVEGANILTRSMMIFGQGAIRCHPYVLEEMEAAKNNDVNAFDKLLFKHIGHVGSNKVRSFWLGLTRGLTSSTPTGDATKRYYQHLNRLSANLALLSDVSMAVLGGSLKRRERISARLGDILSQLYLASAVLKRYDDEGRNEADLPLVHWGVQDALYQAEQAMDDLLQNFPNRVVAGLLNVVIFPTGRHYLAPSDKLDHKVAKILQVPNATRSRIGRGQYLTPSEHNPVGLLEEALVDVIAADPIHQRICKELGKNLPFTRLDELAHNALVKGLIDKDEAAILVKAEESRLRSINVDDFDPEELATKPVKLPEKVRKVEAA
B2: FadM: E. coli long-chain acyl-CoA thioesterase (protein, UniProt P77712 1-132, looked up)
Long-chain acyl-CoA …: MQTQIKVRGYHLDVYQHVNNARYLEFLEEARWDGLENSDSFQWMTAHNIAFVVVNININYRRPAVLSDLLTITSQLQQLNGKSGILSQVITLEPEGQVVADALITFVCIDLKTQKALALEGELREKLEQMVK
B3: YdiI: E. coli Acyl-CoA thioesterase (protein, UniProt P77781 1-136, looked up)
1,4-dihydroxy-2-naphthoyl-CoA …: MIWKRKITLEALNAMGEGNMVGFLDIRFEHIGDDTLEATMPVDSRTKQPFGLLHGGASVVLAESIGSVAGYLCTEGEQKVVGLEINANHVRSAREGRVRGVCKPLHLGSRHQVWQIEIFDEKGRLCCSSRLTTAIL
B4: YciA: E. coli acyl-CoA thioesterase (protein, UniProt P0A8Z0 1-132, looked up)
Acyl-CoA thioester hydrolase …: MSTTHNVPQGDLVLRTLAMPADTNANGDIFGGWLMSQMDIGGAILAKEIAHGRVVTVRVEGMTFLRPVAVGDVVCCYARCVQKGTTSVSINIEVWVKKVASEPIGQRYKATEALFKYVAVDPEGKPRALPVE
B5: TesB: E. coli thioesterase II (protein, UniProt P0AGG2 2-286, looked up)
Acyl-CoA thioesterase 2: SQALKNLLTLLNLEKIEEGLFRGQSEDLGLRQVFGGQVVGQALYAAKETVPEERLVHSFHSYFLRPGDSKKPIIYDVETLRDGNSFSARRVAAIQNGKPIFYMTASFQAPEAGFEHQKTMPSAPAPDGLPSETQIAQSLAHLLPPVLKDKFICDRPLEVRPVEFHNPLKGHVAEPHRQVWIRANGSVPDDLRVHQYLLGYASDLNFLPVALQPHGIGFLEPGIQIATIDHSMWFHRPFNLNEWLLYSVESTSASSARGFVRGEFYTQDGVLVASTVQEGVMRNHN
B6: TesA: E. coli multifunctional acyl-CoA thioesterase I and protease I and lysophospholipase L1 (protein, UniProt P0ADA1 27-208, looked up)
Thioesterase 1/protease …: ADTLLILGDSLSAGYRMSASAAWPALLNDKWQSKTSVVNASISGDTSQQGLARLPALLKQHQPRWVLVELGGNDGLRGFQPQQTEQTLRQILQDVKAANAEPLLMQIRLPANYGRRYNEAFSAIYPKLAKEFDVPLLPFFMEEVYLKPQWMQDDGIHPNRDAQPFIADWMAKQLQPLVNHDS
B7: YbgC: E. coli Acyl-CoA thioesterase (protein, UniProt P0A8Z3 1-134, looked up)
Acyl-CoA thioester hydrolase …: MNTTLFRWPVRVYYEDTDAGGVVYHASYVAFYERARTEMLRHHHFSQQALMAERVAFVVRKMTVEYYAPARLDDMLEIQTEITSMRGTSLVFTQRIVNAENTLLNEAEVLVVCVDPLKMKPRALPKSIVAEFKQ

Experiment: Butyryl-CoA dehydrogenase activity utilizing ferricenium ion
Assay type: biochemical
Conditions: purified enzyme
Description: Cells were lysed using Bacterial Protein Extraction Reagent (B-PER) (Thermo Scientific, Waltham, Mass.) as per the prescribed protocol in order to obtain the supernatant containing the active enzymes. FadE and YdiO were purified following previously established methods^45 using the same growth conditions mentioned above.
Cell pellets were resuspended in 40 mL of 50 mM potassium phosphate buffer pH 7.2 and broken by disruption EmulsiFlex-05 homogenizer (Avestin, Ottawa, ON). Disrupted cells were then spun for 90 min at 4° C. at 120,000×g in a Optima L-80XP Ultracentrifuge (Beckman-Coulter, Schaumburg, Ill.) to produce the supernatant used for assays.
(§1) For specific activity assays (reported in μmol substrate/mg protein/min) these supernatant fractions were utilized and protein concentration was established using the Bradford Reagent (Thermo Scientific, Waltham, Mass.) using BSA as the protein standard. Linearity was established for each reaction and the background non-enzymatic rate was subtracted to establish the activity.
For FadE and YdiO, Butyryl-CoA dehydrogenase activity was measured utilizing ferricenium ion^49. Reactions were performed in 50 mM potassium phosphate pH 7.2, 0.4 mM MgSO4, 200 μM ferrocenium hexafluorophosphate, and 200 μM Butyryl-CoA and monitored the formation of the reduced ferrocene ion at 300 nm (ε=4.3 mM^−1 cm^−1).

**Q.** For B1, which activity upon purification is on record?
**A.** no detectable activities

Same assay, conditions: substrate Butyryl-CoA; crude extract of cells; expressed from pCA24N

**Q.** For B1, which “Specific Activity” value is on record?
**A.** 0.008 ± 0.001^b μmol/mg/min

Experiment: thioesterase activity (production of TNB at 412 nm)
Assay type: biochemical
Conditions: crude cell extract; 200 μM substrate; expressed from pCA24N
From the text: (§2) For AtoB and thioesterase characterization assays, the pCA24N-gene (-gfp) plasmids from the ASKA collection^44 were used. For expression of E. gracilis TER for kinetic characterization, the egTER gene was cloned into pTrcHis2A using the In-Fusion protocol (Clontech Laboratories, Inc., Mountain View, Calif.) following PCR amplification from the aforementioned codon-optimized egTER containing plasmid with the primer pair of F1pTH6hisEgter and R1pTH6hisEgter (Supplementary Table S3).
(§3) Cultures for enzymatic assays were grown overnight in 100 mL of LB media at 37° C. in 250 mL baffled flasks (Wheaton Industries, Inc., Millville, N.J.) in E. coli BL21 (DE3) cells induced with either 1 mM IPTG (pCA24N, pTrcHis2A) or 1 mM Arabinose (pUCBB-pBAD) at an OD600˜0.6, or expressed constitutively (pUCBB-ntH6). Reactions were monitored on either a Synergy HT plate reader (BioTek Instruments, Inc., Winooski, Vt.) at 25° C. (for reactions monitored at 300 nm or higher) or in a Biomate 5 Spectrophotometer (Thermo Scientific, Waltham, Mass.) for reactions at 263 nm.
as §1
(§4) Thioesterase activity was monitored by following the production of TNB at 412 nm ([…])^30. Reactions were carried out in the presence of 100 mM Tris pH 7.5, 200 mM KCl, […] DTNB and 200 μM of the ‘-CoA’ substrate in a volume of 200 μL at 25° C.

**Q.** Which “Specific activities of selected thioesterases on Decanyl-CoA” value does the source give for B2 here?
**A.** 0.034 ± 0.003 μmol/mg protein/min

**Q.** For B3, which “Specific activities of selected thioesterases on Decanyl-CoA” value is on record?
**A.** 0.18 ± 0.04 μmol/mg protein/min

**Q.** With B4 as the molecule, how does the “Specific activities of selected thioesterases on Decanyl-CoA” value read?
**A.** 3.7 ± 0.3 μmol/mg protein/min

**Q.** For B5, which “Specific activities of selected thioesterases on Decanyl-CoA” value is on record?
**A.** 0.6 ± 0.1 μmol/mg protein/min

**Q.** With B6 as the molecule, how does the “Specific activities of selected thioesterases on Decanyl-CoA” value read?
**A.** 0.47 ± 0.04 μmol/mg protein/min

**Q.** Which “Specific activities of selected thioesterases on Decanyl-CoA” value does the source give for B7 here?
**A.** 0.06 ± 0.02 μmol/mg protein/min

Experiment: as above
Assay type: biochemical
Conditions: crude cell extract; 200 μM substrate; expressed from pCA24N
Remark: another data set of the same source
From the text: as §2, §3, §1
For kinetic characterization, an appropriate amount of enzyme was established by checking linear range near predicted KM values. Then, the rates were measured for a range of substrates in order to establish kcat and KM. In the cases of FadB for the crotonase reaction and FadA in the “forward” thiolase reaction coupled with HBD, substrate saturation could not be established, as such, the kcat/KM for the reaction was determined by dividing the linear slope of Velocity vs. [Substrate] by the amount of enzyme used in the assays. For reactions that could be saturated, Velocity vs. [Substrate] was fitted by the EnzKIN Matlab module (mathworks.com/matlabcentral/fileexchange/26653) to establish Vmax and KM.
as §4

**Q.** What does the source list for B2?
**A.** Specific activities of selected thioesterases on Acetoacetyl-CoA: 0.042 ± 0.004 μmol/mg protein/min; Specific activities of selected thioesterases on Acetyl-CoA: 0.0331 ± 0.0006 μmol/mg protein/min; Specific activities of selected thioesterases on Butyryl-CoA: 0.027 ± 0.001 μmol/mg protein/min; Specific activities of selected thioesterases on Crotonyl-CoA: 0.0017 ± 0.0003 μmol/mg protein/min; Specific activities of selected thioesterases on RS-3-Hydroxybutyryl-CoA: 0.009 ± 0.002 μmol/mg protein/min

**Q.** Which results are given for B3?
**A.** Specific activities of selected thioesterases on Acetoacetyl-CoA: 0.047 ± 0.001 μmol/mg protein/min; Specific activities of selected thioesterases on Acetyl-CoA: 0.036 ± 0.003 μmol/mg protein/min; Specific activities of selected thioesterases on Butyryl-CoA: 0.0917 ± 0.0007 μmol/mg protein/min; Specific activities of selected thioesterases on Crotonyl-CoA: 0.078 ± 0.005 μmol/mg protein/min; Specific activities of selected thioesterases on RS-3-Hydroxybutyryl-CoA: 0.012 ± 0.002 μmol/mg protein/min

**Q.** For B4, which “Specific activities of selected thioesterases on Acetoacetyl-CoA” value is on record?
**A.** 0.672 ± 0.007 μmol/mg protein/min

**Q.** What about the “Specific activities of selected thioesterases on Acetyl-CoA” value of the same molecule?
**A.** 0.222 ± 0.007 μmol/mg protein/min

**Q.** And the “Specific activities of selected thioesterases on Butyryl-CoA” value?
**A.** 2.9 ± 0.2 μmol/mg protein/min

**Q.** What about the “Specific activities of selected thioesterases on Crotonyl-CoA” value of the same molecule?
**A.** 0.27 ± 0.03 μmol/mg protein/min

**Q.** And the “Specific activities of selected thioesterases on RS-3-Hydroxybutyryl-CoA” value?
**A.** 0.441 ± 0.009 μmol/mg protein/min

**Q.** Which results are given for B5?
**A.** Specific activities of selected thioesterases on Acetoacetyl-CoA: 0.056 ± 0.001 μmol/mg protein/min; Specific activities of selected thioesterases on Acetyl-CoA: 0.030 ± 0.001 μmol/mg protein/min; Specific activities of selected thioesterases on Butyryl-CoA: 0.101 ± 0.002 μmol/mg protein/min; Specific activities of selected thioesterases on Crotonyl-CoA: 0.010 ± 0.001 μmol/mg protein/min; Specific activities of selected thioesterases on RS-3-Hydroxybutyryl-CoA: 0.032 ± 0.002 μmol/mg protein/min

**Q.** What does the source list for B6?
**A.** Specific activities of selected thioesterases on Acetoacetyl-CoA: 0.044 ± 0.005 μmol/mg protein/min; Specific activities of selected thioesterases on Acetyl-CoA: 0.036 ± 0.002 μmol/mg protein/min; Specific activities of selected thioesterases on Butyryl-CoA: 0.049 ± 0.002 μmol/mg protein/min; Specific activities of selected thioesterases on Crotonyl-CoA: 0.007 ± 0.003 μmol/mg protein/min; Specific activities of selected thioesterases on RS-3-Hydroxybutyryl-CoA: 0.02 ± 0.01 μmol/mg protein/min

**Q.** Which results are given for B7?
**A.** Specific activities of selected thioesterases on Acetoacetyl-CoA: 0.065 ± 0.002 μmol/mg protein/min; Specific activities of selected thioesterases on Acetyl-CoA: 0.036 ± 0.002 μmol/mg protein/min; Specific activities of selected thioesterases on Butyryl-CoA: 0.045 ± 0.007 μmol/mg protein/min; Specific activities of selected thioesterases on Crotonyl-CoA: 0.006 ± 0.001 μmol/mg protein/min; Specific activities of selected thioesterases on RS-3-Hydroxybutyryl-CoA: 0.016 ± 0.004 μmol/mg protein/min

Same assay, conditions: substrate Acetoacetyl-CoA; Table 1; expressed from pCA24N

**Q.** For B4, which “Specific Activity” value is on record?
**A.** 0.672 ± 0.007^b μmol/mg/min

Same assay, conditions: substrate Acetyl-CoA; Table 1; expressed from pCA24N

**Q.** For B4, which “Specific Activity” value is on record?
**A.** 0.222 ± 0.007^b μmol/mg/min

Same assay, conditions: substrate Butyryl-CoA; Table 1; expressed from pCA24N

**Q.** For B4, which “Specific Activity” value is on record?
**A.** 2.9 ± 0.2^b μmol/mg/min

Same assay, conditions: substrate Crotonyl-CoA; Table 1; expressed from pCA24N

**Q.** For B4, which “Specific Activity” value is on record?
**A.** 0.27 ± 0.03^b μmol/mg/min

Same assay, conditions: substrate RS-3-Hydroxybutyryl-CoA; Table 1; expressed from pCA24N

**Q.** For B4, which “Specific Activity” value is on record?
**A.** 0.441 ± 0.009^b μmol/mg/min
